According to publication PMC12377726 (Proceedings of the National Academy of Sciences of the …, 2025):
Residue numbers refer to the chain shown, from its start.

B1: G001_gp1_V10_VRC01c_2021-0121 (antibody, V domains shown)
VH: QVQLVQSGAEVKKPGASVKVSCKASGYSFTGYYIHWVRQVPGQGLEWMGWINPNSGGTNYAQEFQDWVTMTRDTSISTAYMELSRLRSDDTAVYYCARHKPSSRFYFDYWGQGTLVTVSS
VL: DIQMTQSPSTLSASVGDRVTITCRASQSISSWLAWYQQKPGKAPKFLLMYDASSLESGVPSRFSGSGSGTEFTLTISSLQPDDFATYYCQQYETFGQGTKVEIK
B2: G001_gp1_V10_VRC01c_2021-0100 (antibody, V domains shown)
VH: PVQLVQSGAEVKKPGASVKVSCKASGYTFTGYYIHWVRQAPGQGLEWMGWINPNSGGTNYAQKFQGRVTMTRDTSVSTAYMELSRLRSDDTAVYYCARRLAAASGVFGVRFDPWGQGTLVTVSS
VL: DIQMTQSPSSLSASVGDRITITCQASQDISNYLNWYQQRPGKAPKLLIYDASNLETGVPSRFSGSGSGTDFTFTISSLQPEDIATYYCQQYDFFGPGTKVDIK
B3: G001_gp1_V10_VRC01c_2021-0122 (antibody, V domains shown)
VH: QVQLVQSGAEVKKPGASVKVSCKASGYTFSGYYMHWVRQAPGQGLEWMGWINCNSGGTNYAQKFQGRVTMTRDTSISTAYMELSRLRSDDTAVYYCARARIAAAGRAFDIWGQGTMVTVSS
VL: B2 VL with I19V, R39K, D92G, F93T, P96Q, V100L, D101E
B4: G001_gp1_V10_VRC01c_2021-0127 (antibody, V domains shown)
VH: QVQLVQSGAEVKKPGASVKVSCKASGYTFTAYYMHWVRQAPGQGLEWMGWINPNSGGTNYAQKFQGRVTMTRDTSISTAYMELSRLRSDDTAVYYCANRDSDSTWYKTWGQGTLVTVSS
VL: B2 VL with I19V, S30T, Y32H, R39K, R61S, I83V, D92V, F93T, P96G, D101E
B5: G001_gp1_V10_VRC01c_2021-0109 (antibody, V domains shown)
VH: QVQLVQSGAEVKKPGASVKVSCKASGYSFTGYYMHWVRQAPGQGLEWMGWMNPNSGGTNYAQKFQGWVTMTRDTSISTAYMELSRLRSDDSAVYYCARARSGYSSGWYWAYWGQGTLVTVSS
VL: B2 VL with I19V, R39K, D92E, P96G, D101E
B6: G001_gp1_V10_VRC01c_2021-0101 (antibody, V domains shown)
VH: QVHLVQSGAEVKKPGASVKVSCKASGYTFTGYSMHWVRQAPGQGLEWMGWINPNSGGTNYAQKFQGRVTMTRDTSINTGYMELSRLRSDDTAVYYCARPHSNWYFDLWGRGTLVTVSS
VL: EIVLTQSPGTLSLSPGERATLSCRASQSVSSNYLAWYQQKPGQAPRLLIYGASSRATGIPDRFSGSGSGTDFTLTISRLEPEDFAVYYCQQYETFGQGTKVEIK
B7: G001_gp1_V10_VRC01c_2021-0108 (antibody, V domains shown)
VH: QVQLVQSGAEVKKPGASVKISCKASGYTFSGYYMHWVRQAPGQGLEWMGWINPNSGGTNYAQKFQDWVTMTRDTSISTVYMELSRLRSDDTAVYYCARDWCSGDTCYSGPTFDYWGQGTLVTVSS
VL: B6 VL with I2S
B8: G001_gp1_V10_VRC01c_2021-0115 (antibody, V domains shown)
VH: QVQLVQSGAEVKKPGASVKVSCNASGYTFTGYYMHWVRQAPGQGLEWMGWINPNSGGTNFAQKFQGWVTMTRDTSISTAYMELSRLRSDDTAVYYCARSIVGATIFVYWGQGTLVTVSS
VL: B6 VL with V29L, N32S, E93G, T94A, Q97P, E102D
B9: G001_gp1_V10_VRC01c_2021-0106 (antibody, V domains shown)
VH: QVQLVQSGAEVKKPGASVKVSCKASGYTFTDYYIHWVRQAPGQGLEWMGWLNPNSGGTNYAQKFQDWVTMTRDTSINTAYMELSRLRSDDTAVYYCASSLSGYGSFSFDYWGQGTLVTVSS
VL: B6 VL with V29G, N32R, Y33S, S77N, F84S, E93D, T94S, V101L
B10: G001_gp1_V10_VRC01c_2021-0112 (antibody, V domains shown)
VH: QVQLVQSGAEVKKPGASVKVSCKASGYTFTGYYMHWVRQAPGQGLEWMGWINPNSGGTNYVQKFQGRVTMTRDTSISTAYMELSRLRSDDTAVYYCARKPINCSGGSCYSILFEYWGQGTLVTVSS
VL: B6 VL with R24W, S30N, N32R, L34V, K100R, V101L
B11: G001_gp1_V10_VRC01c_2021-0104 (antibody, V domains shown)
VH: QVHLVQSGAEVKKPGASVKVSCKASGYSFTDYYIYWVRQAPGQGLEWMGWINPNSGGTNYAQKFQAWVTMTRDTSISTAYMELNRLTSDDTAVYYCARRTMPTTEFDSWGQGTLVTVSS
VL: B6 VL with A19V, V29L, S31N, A52V, S54N, S64R, F84C, E93V, T94S, V101L
B12: G001_gp1_V10_VRC01c_2021-0110 (antibody, V domains shown)
VH: QVQLVQSGAEVKKPGASVRVSCKASGYTFTGYYMHWVRQAPGQGLEWMGWTNPNSGGTNYAQKFQGWVTMTRDTSISTAYMELSRLRSDDTAVYYCARGEAYSTRYFDLWGRGTLVTVSS
VL: B6 VL with N32S, G51D, A52T
B13: G001_gp1_V10_VRC01c_2021-0103 (antibody, V domains shown)
VH: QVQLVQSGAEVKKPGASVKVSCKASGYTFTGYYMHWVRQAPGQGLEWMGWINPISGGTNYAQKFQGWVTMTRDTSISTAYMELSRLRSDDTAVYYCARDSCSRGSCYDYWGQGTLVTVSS
VL: QSALTQPRSVSGSPGQSVTISCTGTSSDVGGYNYVSWYQQHPGKAPKLMIYDVSKRPSGVPDRFSGSKSGNTASLTISGLQAEDEADYYCCSYEVFGGGTKLTVL
B14: G001_gp1_V10_VRC01c_2021-0125 (antibody, V domains shown)
VH: QVQLVQSGAEVKKPGASVKVSCKASGYTFTGYYIHWVRQAPGQGLEWMGWLNPNSGGTNYLQKFQDRVTMTRDTSIGTAYMELSTLRSDDTAVYYCARGNSGPWAWRYWGQGTLVTVSS
VL: B13 VL with R8A, V18I, Y34S, K55N, P61S, D62N, A82P, C91S
B15: G001_gp1_V10_VRC01c_2021-0117 (antibody, V domains shown)
VH: QVQLVQSGAEVKKPGASVKVSCKASGYTFTGYYMHWVRQAPGQGLEWMGWINPNSGGTNYAQKFQGWVTMTRDTSISTAYMEVSRLTSDDTAVYYCARGEDNWYSFNYWGQGTLVTVSS
VL: EIVMTQSPATLSVSPGERATLSCRASQSVSSKLAWYQQKPGQAPRLLIYGTSTRATGIPARFSGSGSGTEFTLTISSLQSEDFAVYYCQLYETFGQGTKVEIK
B16: G001_gp1_V10_VRC01c_2021-0114 (antibody, V domains shown)
VH: QVQLVQSGAEVKKPGASVKVSCKASGYTFTGYNIHWVRQDPGQGLEWMGWINPNSGGTNYAQKFQDWVTMTRDMSISTAYMELSRLRSDDTAIYYCAAVAGRRGRWAFDIWGQGTMVTVSS
VL: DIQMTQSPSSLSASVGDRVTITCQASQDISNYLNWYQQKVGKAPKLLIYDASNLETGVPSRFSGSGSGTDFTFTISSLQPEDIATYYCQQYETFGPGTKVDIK
B17: G001_gp1_V10_VRC01c_2021-0119 (antibody, V domains shown)
VH: QVQLVQSGAEVKRPGASVMVSCKASGYTFTNYYMHWVRQAPGQGLEWMGWINPSSGGTNYAQKFQDWVTMTRDTSISTVYMELNRLRFDDTAVYFCARAQSSGWFLDFWGQGTLVTVSS
VL: DIQMTQSPSSLSASVGDRVTITCQASQGFTKYLNWYQQKLGKAPKLLIYDASNLETGVPSRFSGSASGTDFTFTISSLQPEDIATYYCQQYDLFGGGTKVEIR
B18: G001_gp1_V10_VRC01c_2021-0107 (antibody, V domains shown)
VH: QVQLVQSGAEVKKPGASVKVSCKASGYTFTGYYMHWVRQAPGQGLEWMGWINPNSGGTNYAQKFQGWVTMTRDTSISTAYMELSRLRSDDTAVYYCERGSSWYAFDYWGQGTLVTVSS
VL: DIQMTQSPSSLSASVGDRVTITCRASQSISSYLNWYQQKPGKAPKLLIYAASSLQSGVPSRFSGSGSGTDFTLTISSLQPEDFATYYCQHQGTFGQGTKVEIK
B19: G001_gp1_V10_VRC01c_2021-0124 (antibody, V domains shown)
VH: QVQLVQSGAEVKKPGASVKVSCKASGYTFTGYYMHWVRQAPGQGLEWMGWINPNSGGTNYARKFQGWVTMTRDTSIGTAYMELSRLRSDDTAVYYCAKSRSRDDTWLFDYWGQGTLVTVSS
VL: DIVMTQSPDSLAVSLGERATINCKSSRSVLYSSNNKNFLTWYQQKPGQPPKLLIYWASTRESGVPERFSGSGSGTDFTLTISSLQAEDVAVYYCQQYESFGQGTKLEIK
B20: G001_gp1_V10_VRC01c_2021-0116 (antibody, V domains shown)
VH: QVQLVQSGAEVKKPGASVKVSCKASGYTFTDYYIHWVRQAPGQGLEWMGWINPNSGGTNYAQKFQGRVTMTRDTSITTAYMELSRLRSDDTAVYYCARICSGGSCYRTTSTFDYWGQGTLVTVSS
VL: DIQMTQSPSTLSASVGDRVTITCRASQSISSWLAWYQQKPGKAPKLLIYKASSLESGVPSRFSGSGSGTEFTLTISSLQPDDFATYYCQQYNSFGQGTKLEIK
B21: G001_gp1_V10_VRC01c_2021-0099 (antibody, V domains shown)
VH: QVQLVQSGAEVKKPGASVKVSCKASGNTFTDYYMYWVRQAPGQGLEWMGWINPNSGGTNYAQKFQGRVTMTRDTSISTAYMELSRLRSDDTAVYYCAGRHYDDSSGYKAFQHWGQGTLVTVSS
VL: DIQMTQSPSTLSASVGDRVTITCRASQSFSSWLAWYQQKPGKAPKLLIYKASSLESGVPSRFSGSGSGTEFTLTISSLQPDDVATYYCQQYETFGQGTKVEIK
B22: G001_gp1_V10_VRC01c_2021-0123 (antibody, V domains shown)
VH: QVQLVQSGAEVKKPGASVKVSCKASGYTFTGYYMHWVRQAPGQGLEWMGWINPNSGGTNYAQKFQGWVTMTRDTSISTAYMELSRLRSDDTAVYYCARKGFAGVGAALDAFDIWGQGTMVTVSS
VL: B21 VL with F29I, V83F, E92N
B23: G001_gp1_V10_VRC01c_2021-0111 (antibody, V domains shown)
VH: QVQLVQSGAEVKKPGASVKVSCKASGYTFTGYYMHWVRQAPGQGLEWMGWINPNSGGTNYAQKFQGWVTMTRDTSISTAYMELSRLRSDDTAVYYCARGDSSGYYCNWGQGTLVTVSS
VL: B21 VL with F29I, V83F, E92T, Q96G
B24: G001_gp1_V10_VRC01c_2021-0105 (antibody, V domains shown)
VH: QVQLVQSGAEVKKPGASVKVSCKASGYTFTGYYIHWVRQAPGQGLEWMGWINPNSGGTNYARQFEGWVTMTRDTSISTAYMELRRLRSDDTAMYYCATEDAVVAGTTFDYWGQGTLVTVSS
VL: B21 VL with F29M, E55Q, V83F, E92N, T93S, Q96G
B25: G001_gp1_V10_VRC01c_2021-0126 (antibody, V domains shown)
VH: QVQLVQSGAEVKKPGASVKVSCKASESTFTDYYMHWVRQAPGQGLEWMGWMNPNSGGTNYALKFQGRVTMTRDTSISTAYMELSRLRSDDTAVYYCATKRRGTYFDQWGQGTLVTVSS
VL: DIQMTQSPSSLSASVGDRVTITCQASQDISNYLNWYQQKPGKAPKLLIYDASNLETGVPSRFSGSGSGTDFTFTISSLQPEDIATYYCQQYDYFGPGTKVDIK
B26: G001_gp1_V10_VRC01c_2021-0120 (antibody, V domains shown)
VH: QVQLVQSGAEVKKPGASVKVSCKASGYTFSGYYMHWVRQAPGQGLEWMGWINPNSGGTNYAQRFQDWVTMTRDTSISTAYMELSRLRSDDTAVYYCARAEYSSAWCFDYWGQGTLVTVSS
VL: DIQMTQSPSSLSASVGDRVTITCQASQDSSKSLNWYQQKPGKAPKLLIYDVSNLETGVPSRFSGSGSGRDFTFTISSLQAEDTATYYCQQYDIFGPGTKVHIK

Target: eOD-GT8 (engineered outer domain germline-targeting version 8), monomer (HIV-1 gp120 engineered outer domain, …)

Binder	binding result
B1	binds
B2	binds
B3	binds
B4	binds
B5	binds
B6	binds
B7	binds
B8	binds
B9	binds
B10	binds
B11	binds
B12	binds
B13	binds
B14	binds
B15	binds
B16	binds
B17	binds
B18	binds
B19	binds
B20	binds
B21	binds
B22	binds
B23	binds
B24	binds
B25	binds
B26	binds
